# B1: human recombinant CHST10 (Homo sapiens) (protein)
# chain: TFKDPDVYSAKQEFLFLTTMPEVRKLPEEKHIPEELKPTGKELPDSQLVQPLVYMERLELIRNVCRDDALKNLSHTPVSKFVLDRIFVCDKHKILFCQTPKVGNTQWKKVLIVLNGAFSSIEEIPENVVHDHEKNGLPRLSSFSDAEIQKRLKTYFKFFIVRDPFERLISAFKDKFVHNPRFEPWYRHEIAPGIIRKYRRNRTETRGIQFEDFVRYLGDPNHRWLDLQFGDHIIHWVTYVELCAPCEIMYSVIGHHETLEDDAPYILKEAGIDHLVSYPTIPPGITVYNRTKVEHYFLGISKRDIRRLYARFEGDFKLFGYQKPDFLLN
# notes: commercial recombinant protein (R&D Systems 6140-ST)
# What was measured:
# [1] = substrate: O=C1OC(c2ccc(O)cc2)(c2ccc(O[C@@H]3O[C@H](C(=O)O)[C@@H](O)[C@H](O)[C@H]3O)cc2)c2ccccc21; assay: malachite green phosphate assay coupled to phosphatase CP3, A620; format: biochemical, Homo sapiens; settings: acceptor substrate, PAPS as donor, 37 °C, 20 min
# [2] = substrate: [H][C@@]12CCc3cc(O[C@@H]4O[C@H](C(=O)O)[C@@H](O)[C@H](O)[C@H]4O)ccc3[C@@]1([H])CC[C@]1(C)[C@@H](O)CC[C@@]21[H]; assay: as above; format: biochemical, Homo sapiens; settings: acceptor substrate, PAPS as donor, 37 °C, 20 min
protein,measurement,setting,value
B1,Km,[1],41.6 ± 2.4 µM
same,Km,[2],73.9 ± 5.4 µM
